5 molecules from publication PMC7452893 (Nature Communications, 2020) can be followed below.

What all share (settings): both partners purified
Experiment [1] addresses T1, SARS-CoV-2 spike glycoprotein, soluble (amino acids 1-1207) (SARS-CoV-2, Wuhan-Hu-1 (QHD43416), UniProt P0DTC2, proline substitution at position 986 | proline substitution at position 987 | …).
T1 construct: also called spike protein
As to the kind of experiment: ELISA; direct ELISA; plates coated with 2 μg/ml recombinant spike, S1, RBD or NTD; scFv-Fc detected with AP-conjugated anti-human IgG; specificity panel (Fig. 1c). Background: In an ELISA, binding on a coated surface is turned into a signal by an enzyme label.

The target in experiment [2] is T2, SARS-CoV-2 spike receptor-binding domain (RBD), monomeric (SARS-CoV-2, UniProt P0DTC2).
T2 construct: Called monomeric RBD in the BLI methods; Amino acids 1-15 are probably removed on secretion (surmise); also called monomeric RBD
As to the kind of experiment: BLI; Octet; biotinylated scFv-Fc on streptavidin sensors; increasing concentrations of monomeric RBD, 300 s association, 600 s dissociation; 30 °C; 1:1 binding model. A general note: BLI is a label-free optical method that tracks binding on a fibre tip over time.

The target in experiment [3] is T2, SARS-CoV-2 spike receptor-binding …. As to the kind of experiment: ELISA; direct ELISA; plates coated with 2 μg/ml recombinant spike, S1, RBD or NTD; scFv-Fc detected with AP-conjugated anti-human IgG; specificity panel (Fig. 1c).

B1: MD17 (antibody, V domains shown)
VH: EVQLLESGGGLVQPGGSLRLSCSASGFTFSTYVMNWVRQAPGKGLEHVSGISSDGGITYYADSVKGRFTISRDNSKNTLYLQMSSLRVEDTAVYYCVKDQDSSSWYDAFDIWGQGTMVTVSS
VL: DIVMTQSPSSLSASVGDRVTITCRASQSISNYLNWYQQKLGKAPKLLTYAASRLQSGVPSRFSASGSGTEFTLTISSLQPEDFATYYCQQSYTTPLTFGGGTKLEIK
notes: scFv-Fc format; also called MD17 scFv-Fc
In the case of B1, the binding result in experiment [1] is recorded as “binds”.

B2: MD29 (antibody, V domains shown)
VH: QMQLVQSGGGLVQPGGSLRLSCSASGFTFSTYVMNWVRQAPGKGPEHVSGISSDGGITYYADSVKGRFTISRDNSKNTLYLQMSSLRVEDTAVYYCVKDQDSSSWYDAFDIWGQGTMVTVSS
VL: NIRLTQSPSSLSASVGDRVTITCRATQSISSYLNWYQQKPGKAPNLLIYAASSLQSGVPSRFSGSGSGTDFTLTISSLQPEDFATYYCHQTYTSPYTFGQGTKLEIK
notes: scFv-Fc format; also called MD29 scFv-Fc
Consider B2, for which the binding result in experiment [1] was “binds”. Besides, in experiment [2], the Kd is 0.4 to 5.8 nM.

B3: MD62 (antibody, V domains shown)
VH: EVQLVQSGGGLIQPGGSLRLSCAASGVTVSSNYMTWVRQAPGKGLEWVSLIYSGGSTYYADSVKGRFTISRDNSKNTLYLQMNSLRAEDTAVYYCARDLQYYGMDVWGQGTMVTVSS
VL: AIRMTQSPSSVSASVGDRVTITCRASQDIGSWLGWYQQKPGKAPKLLIYAASSLAGGVPSRFSGSGSGTDFTLTISSLQPEDFATYYCQQANSFPLTFGGGTKLEIK
notes: scFv-Fc format; also called MD62 scFv-Fc
As for B3, the binding result in experiment [1] is “binds”.

B4: MD47 (antibody, V domains shown)
V domain 1: QMQLVQSGGGLVQPGGSLRLSCAASGFTFSSYAMSWVRQAPGKGLEWVSAISSGGSTYYADSVKGRFTISRDNSKNTLYLQMNSLRAEDTAVYYCAKDLVTAPSYEAFDIWGQGTMITVSS
V domain 2: NFMLTQPPSVSVAPGKTARITCGGNNIGSKSVHWYQQKPGQAPVLVIYYDSDRPSGIPERFSGSNSGNTATLTISRVEAGDEADYYCQVWDSSSHHHVVFGGGTKGTVL
notes: scFv-Fc format; also called MD47 scFv-Fc
Regarding B4, in experiment [3], the binding result was “binds”.

B5: MD67 (antibody, V domains shown)
VH: EVQLVESGGGLVQPGGSLRLSCAASGFTVSSNYMTWVRQAPGKGLEWVSVIYSGGSTFYADSVKGRFTISRHNSKNTLYLQMNSLRAEDTAVYYCARDLSVRGGMDVWGQGTTVTVSS
VL: not shown
notes: scFv-Fc format; also called MD67 scFv-Fc
Consider B5, for which, in experiment [2], the Kd is 0.4 to 5.8 nM.

Usually Kd stands for the constant that tells how readily two partners part at equilibrium. Low values mean a tighter complex, high ones a looser complex.
